The results in this text go back to publication PMC6742479 (Molecular cell, 2015).

This assay concerns the target T1, GST-scKap104 (S. cerevisiae, UniProt P38217 1-918).
T1 sequence (looked up): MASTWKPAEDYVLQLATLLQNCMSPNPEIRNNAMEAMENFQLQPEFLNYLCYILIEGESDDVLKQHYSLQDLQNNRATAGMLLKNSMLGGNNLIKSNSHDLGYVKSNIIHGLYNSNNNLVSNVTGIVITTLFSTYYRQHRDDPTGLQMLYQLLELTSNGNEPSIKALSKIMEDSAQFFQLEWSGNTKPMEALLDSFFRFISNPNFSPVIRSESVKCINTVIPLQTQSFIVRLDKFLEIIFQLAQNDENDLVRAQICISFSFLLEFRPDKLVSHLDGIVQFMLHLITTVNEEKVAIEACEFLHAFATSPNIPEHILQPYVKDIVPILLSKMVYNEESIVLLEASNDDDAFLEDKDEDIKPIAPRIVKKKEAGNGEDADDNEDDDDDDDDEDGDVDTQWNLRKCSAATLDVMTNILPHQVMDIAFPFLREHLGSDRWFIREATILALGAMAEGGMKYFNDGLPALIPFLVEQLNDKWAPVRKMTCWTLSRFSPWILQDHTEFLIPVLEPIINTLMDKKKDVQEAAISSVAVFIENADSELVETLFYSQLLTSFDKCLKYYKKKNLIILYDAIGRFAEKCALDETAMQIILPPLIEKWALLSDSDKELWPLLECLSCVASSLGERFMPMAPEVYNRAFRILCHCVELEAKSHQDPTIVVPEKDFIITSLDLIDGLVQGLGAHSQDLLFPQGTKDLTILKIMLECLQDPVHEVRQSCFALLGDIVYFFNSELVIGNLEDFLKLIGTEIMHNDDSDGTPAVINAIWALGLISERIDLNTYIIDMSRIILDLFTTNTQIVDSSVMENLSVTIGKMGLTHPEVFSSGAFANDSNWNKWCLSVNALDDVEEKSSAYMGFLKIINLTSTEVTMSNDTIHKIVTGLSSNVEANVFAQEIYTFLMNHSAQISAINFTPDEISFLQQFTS
Kind of assay: pull-down.

B1: His6-scAcl4•scRpL4 (complex)
chain 1: MSELEATIRQAKEALAENNAKKALKILKPFKSSLKKENANNVILNEVFADAYLDNGQVEKAYPILARACELDPEGQVGGPDKFFTMGQIMGGQDGVSIITRGIMNISNTGGEMLTNVQVEKIVGGLLSVIEIWMTDLCMEPNAEEQCEELIQKAMELTEGKSPETWSTLGSIKISQQKFGEAYEAFSQAWNFFELKKQEIGSGINENGDTTQKAGLQSEYVDLLQPLLSLTKMCLEVGAYEVALKVIAAVRDIDEDNIEGYYLEGFTYYLMSKLEIFKLNNPEVSLRPENIYEFNQLIQEVPLDLSHEPISQLIYDSRLALSFALQAGVNADSKDEIVQELLGGANALLQEIGGPLDPSELTQIKKGDLVNENEDLEELDIEEEYSD
chain 2: not shown
B1: the binding result is given as “binds”.

B2: scRpL4 (natural protein)
chain: not shown
As to B2, the binding result is recorded as “binds”.
